Assay [1] concerns the target human TSH receptor (CHO-JP09 cells) (human) (UniProt P16473). The assay is described as follows: cell-based or functional assay.
The target of assay [2] is rat TSH receptor (FRTL-5 cells) (rat) (UniProt P21463). The assay is described as follows: cell-based or functional assay.
For assay [3], the target named is porcine TSH receptor (solubilized porcine thyroid membranes) (porcine) (UniProt Q8SPP9). The assay is described as follows: competitive displacement of 125I-bTSH from solubilized porcine thyroid membranes. A general note: Displacement assays read how much labelled ligand stays bound in the presence of the test substance.
porcine TSH receptor (solubilized porcine thyroid membranes) (porcine), sequence (Q8SPP9 22-764): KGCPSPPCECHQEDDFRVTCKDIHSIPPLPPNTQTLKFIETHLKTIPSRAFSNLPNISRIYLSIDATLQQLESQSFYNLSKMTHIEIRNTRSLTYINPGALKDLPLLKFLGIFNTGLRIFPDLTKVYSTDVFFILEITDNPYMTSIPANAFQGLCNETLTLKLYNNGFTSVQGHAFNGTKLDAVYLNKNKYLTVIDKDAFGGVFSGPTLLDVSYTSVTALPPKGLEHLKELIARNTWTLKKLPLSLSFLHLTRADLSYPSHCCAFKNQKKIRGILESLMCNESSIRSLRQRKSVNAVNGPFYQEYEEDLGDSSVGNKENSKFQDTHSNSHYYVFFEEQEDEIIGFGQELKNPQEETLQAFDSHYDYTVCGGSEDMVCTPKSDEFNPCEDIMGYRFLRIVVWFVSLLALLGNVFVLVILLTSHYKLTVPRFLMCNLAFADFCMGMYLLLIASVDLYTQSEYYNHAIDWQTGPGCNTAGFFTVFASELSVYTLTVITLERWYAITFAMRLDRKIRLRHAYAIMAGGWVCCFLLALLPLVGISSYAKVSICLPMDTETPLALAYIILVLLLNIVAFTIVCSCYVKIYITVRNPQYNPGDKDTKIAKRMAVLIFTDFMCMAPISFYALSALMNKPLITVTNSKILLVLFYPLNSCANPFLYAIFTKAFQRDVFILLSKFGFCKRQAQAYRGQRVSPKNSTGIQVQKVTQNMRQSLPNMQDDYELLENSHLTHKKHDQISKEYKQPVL
For assay [4] the target is unchanged. Nature of the assay: competitive binding assay to porcine thyroid membranes.
Assay [5] deals with hCG (LH/CG) receptor of MA-10 transformed murine Leydig cells (murine) (UniProt P30730). Nature of the assay: cell-based or functional assay.
hCG (LH/CG) receptor of MA-10 transformed murine Leydig cells (murine), sequence (P30730 27-700): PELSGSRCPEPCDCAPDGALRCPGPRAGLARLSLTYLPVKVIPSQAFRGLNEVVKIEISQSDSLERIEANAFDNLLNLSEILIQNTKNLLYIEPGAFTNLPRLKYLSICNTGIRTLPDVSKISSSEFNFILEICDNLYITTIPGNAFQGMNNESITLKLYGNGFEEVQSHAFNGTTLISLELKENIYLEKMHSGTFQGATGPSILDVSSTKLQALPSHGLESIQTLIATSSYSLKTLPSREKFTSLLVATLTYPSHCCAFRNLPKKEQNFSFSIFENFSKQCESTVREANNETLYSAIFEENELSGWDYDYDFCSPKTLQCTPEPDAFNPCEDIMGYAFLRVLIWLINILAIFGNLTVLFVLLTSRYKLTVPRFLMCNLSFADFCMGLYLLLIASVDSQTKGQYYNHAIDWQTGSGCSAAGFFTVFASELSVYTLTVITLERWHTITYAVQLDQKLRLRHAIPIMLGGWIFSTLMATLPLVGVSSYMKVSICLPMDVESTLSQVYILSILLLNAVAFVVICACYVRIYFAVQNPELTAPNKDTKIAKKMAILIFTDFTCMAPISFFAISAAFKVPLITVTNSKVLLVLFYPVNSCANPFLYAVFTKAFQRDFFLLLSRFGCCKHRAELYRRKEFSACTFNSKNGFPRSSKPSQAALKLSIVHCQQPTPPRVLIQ
The target is the same in assay [6]. The assay is described as follows: competitive binding with 125I-hCG on MA-10 cells.

rat TSH receptor (FRTL-5 cells) (rat), sequence (P21463 22-764): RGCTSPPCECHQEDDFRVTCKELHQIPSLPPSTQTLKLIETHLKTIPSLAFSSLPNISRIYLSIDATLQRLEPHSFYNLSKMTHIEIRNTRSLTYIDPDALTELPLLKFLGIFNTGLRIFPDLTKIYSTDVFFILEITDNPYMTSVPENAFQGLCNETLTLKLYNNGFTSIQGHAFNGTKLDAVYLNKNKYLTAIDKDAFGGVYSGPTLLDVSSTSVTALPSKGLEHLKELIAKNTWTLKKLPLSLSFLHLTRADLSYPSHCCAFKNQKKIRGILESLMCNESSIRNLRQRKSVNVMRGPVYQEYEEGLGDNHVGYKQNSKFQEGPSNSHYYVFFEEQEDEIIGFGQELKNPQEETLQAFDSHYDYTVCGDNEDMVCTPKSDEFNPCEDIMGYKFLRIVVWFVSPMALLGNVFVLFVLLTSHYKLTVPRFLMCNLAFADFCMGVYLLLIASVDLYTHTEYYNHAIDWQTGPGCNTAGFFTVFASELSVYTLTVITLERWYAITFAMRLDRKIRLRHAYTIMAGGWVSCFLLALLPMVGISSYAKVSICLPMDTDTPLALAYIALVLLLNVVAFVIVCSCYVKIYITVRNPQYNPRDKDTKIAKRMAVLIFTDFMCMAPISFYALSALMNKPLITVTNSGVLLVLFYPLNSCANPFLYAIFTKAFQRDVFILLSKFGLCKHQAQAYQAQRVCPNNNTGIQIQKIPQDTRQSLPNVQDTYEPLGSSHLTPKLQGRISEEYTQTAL

Turning to “hTSH β-subunit mutant I58R (from UniProt P01215 25-116; P01222 21-132) (ligand)”, the potency relative to hTSH in assay [1] and in assay [2] was 2 to 4 fold each time.
Turning to “hTSH α-subunit mutant Q13K (from UniProt P01215 25-116; P01222 21-132) (ligand)”, in assay [1], the cAMP stimulation in JP09 cells, EC50 was determined as 1.89 ng/mL and the cAMP stimulation in JP09 cells, Relative potency (WT = 1) (fold (WT = 1)) turned out to be 3.5. The same substance showed an EC25 of inhibition of 125I-bTSH binding in assay [3] of 22.5 ng/mL.
Turning to “hTSH α-subunit mutant P16K (from UniProt P01215 25-116; P01222 21-132) (ligand)”, in assay [1], the cAMP stimulation in JP09 cells, EC50 stood at 1.05 ng/mL and the cAMP stimulation in JP09 cells, Relative potency (WT = 1) (fold (WT = 1)) was determined as 6.4. This substance had a fold greater affinity than WT-hTSH in assay [4] of 5 fold. Moreover, the EC25 of inhibition of 125I-bTSH binding in assay [3] was found to be 18.3 ng/mL.
As for “hCG α-subunit mutant R67K (from UniProt P01215 25-116; P0DN86 21-165) (ligand)”, in assay [5], the Progesterone synthesis in MA10 cells, EC50 was determined as 4.6 ng/mL and the Progesterone synthesis in MA10 cells, Max (%) was 145 % of WT-hCG.
As for “hTSH α-subunit mutant T11K (from UniProt P01215 25-116; P01222 21-132) (ligand)”, in assay [1], the cAMP stimulation in JP09 cells, EC50 stood at 4.47 ng/mL and the cAMP stimulation in JP09 cells, Relative potency (WT = 1) (fold (WT = 1)) turned out to be 1.5. Besides, the EC25 of inhibition of 125I-bTSH binding in assay [3] was found to be 68.3 ng/mL.
In assay [1], “hTSH β-subunit mutant I58R+E63R+L69R (from UniProt P01215 25-116; P01222 21-132) (ligand)” had an efficacy relative to wild type hTSH (cAMP stimulation, FIG. 2g) of 1.7 fold and a potency relative to wild type hTSH (cAMP stimulation, FIG. 2g) of 50 fold.
Consider “hTSH α-subunit mutant Q20K (from UniProt P01215 25-116; P01222 21-132) (ligand)”, for which, in assay [1], the cAMP stimulation in JP09 cells, EC50 turned out to be 1.16 ng/mL and the cAMP stimulation in JP09 cells, Relative potency (WT = 1) (fold (WT = 1)) is 5.8. The substance further returned an EC25 of inhibition of 125I-bTSH binding in assay [3] of 21.3 ng/mL.
Turning to “hTSH mutant TSHβ-L69R + α Q13K + P16K + Q20K + E14K (from UniProt P01215 25-116; P01222 21-132) (ligand)”, in assay [1], the cAMP stimulation in JP09 cells, EC50 was 0.07 ng/mL; the cAMP stimulation in JP09 cells, Relative potency (WT = 1) (fold (WT = 1)) was 95.7; the efficacy (maximal response) of cAMP stimulation in CHO-JP09 cells, fold over WT-hTSH amounted to 1.5 fold. The substance further returned an EC25 of inhibition of 125I-bTSH binding in assay [3] of 1.3 ng/mL.
On to “hCG α-subunit mutant Q50P (from UniProt P01215 25-116; P0DN86 21-165) (ligand)”, for which, in assay [5], the Progesterone synthesis in MA10 cells, EC50 was 3.9 ng/mL and the Progesterone synthesis in MA10 cells, Max (%) was 137 % of WT-hCG.
For the substance “hTSH α-subunit quadruple mutant Q13K + P16K + Q20K + E14K (from UniProt P01215 25-116; P01222 21-132) (ligand)”, in assay [1], the cAMP stimulation in JP09 cells, EC50 is 0.17 ng/mL; the cAMP stimulation in JP09 cells, Relative potency (WT = 1) (fold (WT = 1)) is 39.4; the efficacy (maximal response) of cAMP stimulation in CHO-JP09 cells, fold over WT-hTSH came to 1.5 fold. The substance also showed an EC25 of inhibition of 125I-bTSH binding in assay [3] of 2.1 ng/mL.
In the case of “hCG α-subunit triple mutant Q13K + P16K + Q20K (from UniProt P01215 25-116; P0DN86 21-165) (ligand)”, in assay [5], the Progesterone synthesis in MA10 cells, EC50 is 1.58 ng/mL and the Progesterone synthesis in MA10 cells, Max (%) was 216 % of WT-hCG.
With “hTSH α-subunit triple mutant Q13K + P16K + Q20K with WT-hTSHβ (from UniProt P01215 25-116; P01222 21-132) (ligand)”, in assay [1], the cAMP stimulation in JP09 cells, EC50 was determined as 0.28 ng/mL and the cAMP stimulation in JP09 cells, Relative potency (WT = 1) (fold (WT = 1)) is 23.9. Moreover, the fold lower concentration than WT-hTSH for half-maximal stimulation of 3H-thymidine incorporation in FRTL-5 cells in assay [2] came out at 18 fold. Also, in assay [3], the EC25 of inhibition of 125I-bTSH binding was 2.3 ng/mL.
With “hTSH α-subunit mutant Q50P (from UniProt P01215 25-116; P01222 21-132) (ligand)”, in assay [1], the cAMP stimulation in JP09 cells, EC50 worked out at 5.54 ng/mL and the cAMP stimulation in JP09 cells, Relative potency (WT = 1) (fold (WT = 1)) came to 1.2. Besides, in assay [3], the EC25 of inhibition of 125I-bTSH binding was found to be 77.5 ng/mL.
“hCG α-subunit quadruple mutant Q13K + P16K + Q20K + E14K (from UniProt P01215 25-116; P0DN86 21-165) (ligand)”: in assay [5], the Progesterone synthesis in MA10 cells, EC50 was 1.65 ng/mL and the Progesterone synthesis in MA10 cells, Max (%) is 205 % of WT-hCG.
Regarding “hCG α-subunit mutant P16K with WT-hCGβ (from UniProt P01215 25-116; P0DN86 21-165) (ligand)”, in assay [5], the Progesterone synthesis in MA10 cells, EC50 amounted to 2.05 ng/mL; the Progesterone synthesis in MA10 cells, Max (%) is 161 % of WT-hCG; the progesterone release assay, fold potency over wild type worked out at 3.4 fold; the stimulation of progesterone production in MA-10 cells, fold over WT-hCG is 4 fold. Also, the fold receptor binding activity over WT-hCG in assay [6] was 4 fold.
Consider “hCG α-subunit mutant Q20K (from UniProt P01215 25-116; P0DN86 21-165) (ligand)”, for which, in assay [5], the Progesterone synthesis in MA10 cells, EC50 was found to be 2.98 ng/mL and the Progesterone synthesis in MA10 cells, Max (%) is 134 % of WT-hCG.
Consider “hTSH β-subunit mutant E63R (from UniProt P01215 25-116; P01222 21-132) (ligand)”, for which the potency relative to hTSH in assay [1] and in assay [2] was 2 to 4 fold throughout.
On to “hTSH α-subunit mutant P16K + F17T (from UniProt P01215 25-116; P01222 21-132) (ligand)”, for which, in assay [1], the cAMP stimulation in JP09 cells, EC50 was 3.52 ng/mL and the cAMP stimulation in JP09 cells, Relative potency (WT = 1) (fold (WT = 1)) is 1.9.
For the substance “hCG α-subunit mutant Q13K (from UniProt P01215 25-116; P0DN86 21-165) (ligand)”, in assay [5], the Progesterone synthesis in MA10 cells, EC50 is 2.46 ng/mL and the Progesterone synthesis in MA10 cells, Max (%) was 115 % of WT-hCG.
On to “hTSH α-subunit mutant R67K (from UniProt P01215 25-116; P01222 21-132) (ligand)”, for which, in assay [1], the cAMP stimulation in JP09 cells, EC50 turned out to be 7.36 ng/mL and the cAMP stimulation in JP09 cells, Relative potency (WT = 1) (fold (WT = 1)) worked out at 0.9. This substance registered an EC25 of inhibition of 125I-bTSH binding in assay [3] of 62.5 ng/mL.
As to “hTSH β-subunit mutant TSHβ-L69R (from UniProt P01215 25-116; P01222 21-132) (ligand)”, in assay [1], the cAMP stimulation in JP09 cells, EC50 was 2.75 ng/mL and the cAMP stimulation in JP09 cells, Relative potency (WT = 1) (fold (WT = 1)) worked out at 2.4.
For the substance “hCG α-subunit mutant T11K (from UniProt P01215 25-116; P0DN86 21-165) (ligand)”, in assay [5], the Progesterone synthesis in MA10 cells, EC50 was 2.79 ng/mL and the Progesterone synthesis in MA10 cells, Max (%) is 156 % of WT-hCG.
Turning to “hTSH α-subunit double mutant P16K + Q20K (from UniProt P01215 25-116; P01222 21-132) (ligand)”, in assay [1], the cAMP stimulation in JP09 cells, EC50 amounted to 0.57 ng/mL and the cAMP stimulation in JP09 cells, Relative potency (WT = 1) (fold (WT = 1)) came to 11.8. In addition, the EC25 of inhibition of 125I-bTSH binding in assay [3] was 6.4 ng/mL.
As for “hTSH mutant TSHβ-L69R + α Q13K + P16K + Q20K (from UniProt P01215 25-116; P01222 21-132) (ligand)”, in assay [1], the cAMP stimulation in JP09 cells, EC50 worked out at 0.19 ng/mL and the cAMP stimulation in JP09 cells, Relative potency (WT = 1) (fold (WT = 1)) worked out at 35.3. This substance gave a fold lower concentration than WT-hTSH for half-maximal stimulation of 3H-thymidine incorporation in FRTL-5 cells in assay [2] of 27 fold. Also, the EC25 of inhibition of 125I-bTSH binding in assay [3] was determined as 1.8 ng/mL.
In assay [1], “hTSH β-subunit mutant I58R+E63R (from UniProt P01215 25-116; P01222 21-132) (ligand)” had an efficacy relative to wild type hTSH (cAMP stimulation, FIG. 2g) of 1.5 fold and a potency relative to wild type hTSH (cAMP stimulation, FIG. 2g) of 15 fold.
On to “hCG α-subunit double mutant P16K + Q20K (from UniProt P01215 25-116; P0DN86 21-165) (ligand)”, for which, in assay [5], the Progesterone synthesis in MA10 cells, EC50 was 1.7 ng/mL and the Progesterone synthesis in MA10 cells, Max (%) is 212 % of WT-hCG.
